The supplement of paper PMC10567573

B1: ZNF511 (parent)
chain: FDALDDYEHHYHTLHGNVCSFCKR

Variants of: B1
Test: protein stability index of a GFP-peptide fusion (GPS, HEK-293T) (PSI 1-6); higher = more stable
Settings: c terminus: a fixed tail appended
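Also: lentivirally expressed fusions sorted by FACS into six bins by GFP to DsRed ratio, PSI derived from sequencing read proportions per bin multiplied by bin number.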

Protein stability index, by site and new letter:
F21: Q 4.56 | Y 3.64 | H 4 | S 3.91 | G 4.35 | K 4.2 | L 4.01 | P 3.49 | I 4.22 | D 4.62 | T 4.28 | A 4.3 | R 4.55 | C 3.59 | N 4.15
H9: P 3.8 | Y 2.65 | A 3.57 | R 4.1 | M 3.44 | E 3.71 | C 4.26 | V 3.18 | T 3.47 | F 3.03 | D 3.69 | S 3.44 | I 3.39 | K 3.43 | G 4 | W 2.67 | L 2.86 | Q 3.43 | N 2.8
H10: I 2.53 | Y 3.22 | E 3.74 | M 2.65 | V 2.46 | A 2.94 | T 3.4 | S 3.06 | G 3.73 | N 3.37 | P 2.76 | Q 3.48 | D 3.85 | R 3.59 | K 3.24 | L 2.62 | F 2.92 | W 3.04 | C 4.7
N17: T 3.5 | G 3.64 | I 3.25 | P 3.16 | Q 2.24 | F 3.1 | L 2.29 | R 3.9 | V 3.67 | C 2.5 | W 2.6 | M 3.54 | S 3.98 | E 3.96 | K 3.22 | Y 2.93 | A 3.55 | D 4.23 | H 3.64
D6: Q 3.56 | R 3.52 | C 4.28 | E 3.43 | G 3.69 | A 3.54 | T 3.27 | P 3.74 | L 4.68 | S 3.95 | M 3.03 | W 1.67 | F 2.21 | V 2.98 | Y 2.59 | K 2.97 | H 3.96 | N 3.91 | I 3.51
Y7: C 4.92 | A 3.4 | F 3.24 | K 4.44 | T 4.16 | D 4.22 | G 4.16 | R 4.23 | M 4.29 | L 3.54 | I 4.18 | P 3.97 | E 4.31 | S 4.05 | N 4.25 | Q 4.25 | H 4.43 | V 3.98 | W 3.71
G16: M 3.15 | I 3.15 | H 3.5 | Q 3.3 | S 3.37 | R 3.47 | L 2.98 | A 3.72 | T 3.47 | V 2.96 | K 3.22 | N 3.72 | E 3.75 | D 3.87 | P 3.46 | W 2.66 | F 2.9 | C 3.42 | Y 2.85
V18: M 3.68 | Q 4.18 | T 3.76 | D 4.12 | K 4.05 | N 3.89 | G 4.05 | C 3.66 | E 4.36 | P 4.49 | S 3.82 | W 2.8 | H 2.93 | Y 3.7 | A 3.7 | R 3.88 | L 3.83 | F 2.97 | I 3.53
T13: G 4.15 | L 3.24 | I 3.19 | D 3.91 | V 3.77 | K 3.4 | S 3.54 | A 3.82 | Y 2.92 | Q 3.66 | H 4.17 | P 4.19 | M 3.5 | E 4.27 | C 4.5 | R 3.07 | N 3.56 | W 2.78 | F 2.65
